Biological target: T1, 재조합 인간 TIGIT 단백질 (acrobiosystems, China) (human, UniProt Q495A1 22-141)
T1 construct: Bought recombinant protein; also called hTIGIT
T1 sequence: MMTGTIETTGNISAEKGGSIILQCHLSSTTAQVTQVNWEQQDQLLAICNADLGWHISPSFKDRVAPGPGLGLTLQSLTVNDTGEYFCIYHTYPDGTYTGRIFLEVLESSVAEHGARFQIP
Assay: SPR (Biacore T200), multi-cycle kinetics, antibody captured, TIGIT as analyte, 1:1 model

B1: 마우스 항-TIGIT 단클론 항체 3F8 (mouse backbone mIgG1) (antibody, V domains shown)
VH: EVQLQQSGPELVKPGASMKISCKASGYSFTDYIMNWVKQSHGKNLEWIGLSIPYNGGTSYNQKFEGKATLTVDKSSSTAYMELLSLTSEDSAVYYCARGIKGYFAMDYWGQGTSVTVSS
VL: DVVVTQTPLSLPVSFGDQVSISCRSSQSLVNSFGKTYLSWFLHKPGQSPQLIMYGVSNRFSGVPDRFSGSGSGTDFTLKISTIKPEDLGMYYCLQGTHQPWTFGGGTKLEIK
notes: also called 항-TIGIT 3F8 항체; 클론 3F8
Question: For B1, which Kd is on record?
Answer: 0.986 nM

Question: And the koff?
Answer: 0.000216 s⁻¹

Question: And the kon?
Answer: 219000 M⁻¹ s⁻¹

B2: 마우스 항-TIGIT 단클론 항체 2B7 (mouse backbone mIgG1) (antibody, V domains shown)
VH: EVQLQQSGPELVKPGASVKISCKTSGSTFTEYTMHWVKQSHGKSLEWIGGLNPNNGGTSYNQRFKDRATLTVDKSSSTAYMELRSLTSEDSAVYYCTRGTYYDYSFAYWGQGTLVTVSA
VL: DIVMTQSHKFMSTSVGDRVSITCKASHYVSTAVAWYQQKPGQSPKLLIYSPSYRYTGVPDRFTGSGSGTDFTFTISSVQAEDLAVYYCHQHYSTPWTFGGGTKLEIK
notes: also called 항-TIGIT 2B7 항체; 클론 2B7
Question: What does the source list for B2?
Answer: Kd: 1.89 nM; koff: 0.000445 s⁻¹; kon: 235000 M⁻¹ s⁻¹

— patent publication KR20230168598A (dated 2023)
